Laboratory results: the supplement of paper PMC10567573

B1: STK38L (parent)
chain: FCIDSENRIGNSGVEEIKGHPFFE

Variants of: B1
Experiment: protein stability index of a GFP-peptide fusion (GPS, HEK-293T) (PSI 1-6); higher = more stable
Settings: c terminus: a fixed tail appended
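Further: lentivirally expressed fusions sorted by FACS into six bins by GFP to DsRed ratio, PSI derived from sequencing read proportions per bin multiplied by bin number.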

Which protein stability index does the source give for FCIDSENRIGMSGVEEIKGHPFFE here?
Its protein stability index is 1.83.

Which protein stability index does the source give for FCIDSENRIGPSGVEEIKGHPFFE here?
Its protein stability index is 2.12.

Which protein stability index does the source give for FCIDSENRIGQSGVEEIKGHPFFE here?
The protein stability index was 2.73.

With FCIDSENRIGRSGVEEIKGHPFFE as the variant, how does the protein stability index read?
Its protein stability index is 2.31.

Which protein stability index does the source give for FCIDSENRIGSSGVEEIKGHPFFE here?
The protein stability index was 1.99.

Which protein stability index does the source give for FCIDSENRIGTSGVEEIKGHPFFE here?
Its protein stability index is 1.81.

Which protein stability index does the source give for FCIDSENRIGVSGVEEIKGHPFFE here?
The protein stability index was 2.

With FCIDSENRIGWSGVEEIKGHPFFE as the variant, how does the protein stability index read?
Its protein stability index is 1.57.

Which protein stability index does the source give for FCIDSENRIGYSGVEEIKGHPFFE here?
The protein stability index was 2.12.

Which protein stability index does the source give for FCIDSENRIGNAGVEEIKGHPFFE here?
Its protein stability index is 1.98.

Which protein stability index does the source give for FCIDSENRIGNDGVEEIKGHPFFE here?
Its protein stability index is 2.32.

For FCIDSENRIGNEGVEEIKGHPFFE, which protein stability index is on record?
The protein stability index was 2.52.

With FCIDSENRIGNFGVEEIKGHPFFE as the variant, how does the protein stability index read?
Its protein stability index is 1.84.

Which protein stability index does the source give for FCIDSENRIGNGGVEEIKGHPFFE here?
Its protein stability index is 1.91.

Which protein stability index does the source give for FCIDSENRIGNHGVEEIKGHPFFE here?
The protein stability index was 2.56.

With FCIDSENRIGNIGVEEIKGHPFFE as the variant, how does the protein stability index read?
Its protein stability index is 2.35.

Which protein stability index does the source give for FCIDSENRIGNKGVEEIKGHPFFE here?
The protein stability index was 2.78.

With FCIDSENRIGNLGVEEIKGHPFFE as the variant, how does the protein stability index read?
The protein stability index was 1.9.

For FCIDSENRIGNMGVEEIKGHPFFE, which protein stability index is on record?
Its protein stability index is 1.72.

With FCIDSENRIGNNGVEEIKGHPFFE as the variant, how does the protein stability index read?
Its protein stability index is 2.55.

With FCIDSENRIGNPGVEEIKGHPFFE as the variant, how does the protein stability index read?
Its protein stability index is 2.32.

With FCIDSENRIGNQGVEEIKGHPFFE as the variant, how does the protein stability index read?
Its protein stability index is 2.2.

For FCIDSENRIGNRGVEEIKGHPFFE, which protein stability index is on record?
The protein stability index was 2.35.

With FCIDSENRIGNTGVEEIKGHPFFE as the variant, how does the protein stability index read?
Its protein stability index is 2.52.

Which protein stability index does the source give for FCIDSENRIGNVGVEEIKGHPFFE here?
The protein stability index was 2.

Which protein stability index does the source give for FCIDSENRIGNWGVEEIKGHPFFE here?
Its protein stability index is 1.5.

For FCIDSENRIGNYGVEEIKGHPFFE, which protein stability index is on record?
Its protein stability index is 1.99.

For FCIDSENRIGNSAVEEIKGHPFFE, which protein stability index is on record?
The protein stability index was 2.07.

With FCIDSENRIGNSCVEEIKGHPFFE as the variant, how does the protein stability index read?
The protein stability index was 2.1.

With FCIDSENRIGNSDVEEIKGHPFFE as the variant, how does the protein stability index read?
Its protein stability index is 2.55.

Which protein stability index does the source give for FCIDSENRIGNSEVEEIKGHPFFE here?
Its protein stability index is 3.12.

For FCIDSENRIGNSFVEEIKGHPFFE, which protein stability index is on record?
Its protein stability index is 2.95.

For FCIDSENRIGNSHVEEIKGHPFFE, which protein stability index is on record?
Its protein stability index is 2.56.

For FCIDSENRIGNSIVEEIKGHPFFE, which protein stability index is on record?
The protein stability index was 2.47.

Which protein stability index does the source give for FCIDSENRIGNSKVEEIKGHPFFE here?
The protein stability index was 2.44.

With FCIDSENRIGNSLVEEIKGHPFFE as the variant, how does the protein stability index read?
Its protein stability index is 2.22.

With FCIDSENRIGNSMVEEIKGHPFFE as the variant, how does the protein stability index read?
Its protein stability index is 2.12.

For FCIDSENRIGNSNVEEIKGHPFFE, which protein stability index is on record?
Its protein stability index is 2.73.

For FCIDSENRIGNSPVEEIKGHPFFE, which protein stability index is on record?
Its protein stability index is 2.68.

With FCIDSENRIGNSQVEEIKGHPFFE as the variant, how does the protein stability index read?
The protein stability index was 2.44.

With FCIDSENRIGNSRVEEIKGHPFFE as the variant, how does the protein stability index read?
The protein stability index was 2.26.

For FCIDSENRIGNSTVEEIKGHPFFE, which protein stability index is on record?
Its protein stability index is 2.75.

For FCIDSENRIGNSVVEEIKGHPFFE, which protein stability index is on record?
Its protein stability index is 1.97.

For FCIDSENRIGNSWVEEIKGHPFFE, which protein stability index is on record?
Its protein stability index is 2.87.

With FCIDSENRIGNSYVEEIKGHPFFE as the variant, how does the protein stability index read?
Its protein stability index is 2.28.

Which protein stability index does the source give for FCIDSENRIGNSGAEEIKGHPFFE here?
Its protein stability index is 3.13.

For FCIDSENRIGNSGCEEIKGHPFFE, which protein stability index is on record?
Its protein stability index is 2.27.

With FCIDSENRIGNSGDEEIKGHPFFE as the variant, how does the protein stability index read?
The protein stability index was 2.68.

Which protein stability index does the source give for FCIDSENRIGNSGEEEIKGHPFFE here?
The protein stability index was 2.96.

With FCIDSENRIGNSGFEEIKGHPFFE as the variant, how does the protein stability index read?
The protein stability index was 1.6.

With FCIDSENRIGNSGGEEIKGHPFFE as the variant, how does the protein stability index read?
Its protein stability index is 2.01.

Which protein stability index does the source give for FCIDSENRIGNSGHEEIKGHPFFE here?
Its protein stability index is 2.06.

For FCIDSENRIGNSGIEEIKGHPFFE, which protein stability index is on record?
The protein stability index was 2.1.

Which protein stability index does the source give for FCIDSENRIGNSGKEEIKGHPFFE here?
Its protein stability index is 2.72.

For FCIDSENRIGNSGLEEIKGHPFFE, which protein stability index is on record?
The protein stability index was 1.54.

With FCIDSENRIGNSGMEEIKGHPFFE as the variant, how does the protein stability index read?
Its protein stability index is 2.47.

For FCIDSENRIGNSGNEEIKGHPFFE, which protein stability index is on record?
Its protein stability index is 2.8.

For FCIDSENRIGNSGPEEIKGHPFFE, which protein stability index is on record?
Its protein stability index is 2.46.

With FCIDSENRIGNSGQEEIKGHPFFE as the variant, how does the protein stability index read?
Its protein stability index is 2.74.

For FCIDSENRIGNSGREEIKGHPFFE, which protein stability index is on record?
The protein stability index was 2.32.

With FCIDSENRIGNSGSEEIKGHPFFE as the variant, how does the protein stability index read?
Its protein stability index is 2.32.

Which protein stability index does the source give for FCIDSENRIGNSGTEEIKGHPFFE here?
Its protein stability index is 2.29.

Which protein stability index does the source give for FCIDSENRIGNSGWEEIKGHPFFE here?
The protein stability index was 1.96.

Which protein stability index does the source give for FCIDSENRIGNSGYEEIKGHPFFE here?
The protein stability index was 2.96.

With FCIDSENRIGNSGVAEIKGHPFFE as the variant, how does the protein stability index read?
The protein stability index was 1.99.

For FCIDSENRIGNSGVCEIKGHPFFE, which protein stability index is on record?
Its protein stability index is 2.68.

With FCIDSENRIGNSGVDEIKGHPFFE as the variant, how does the protein stability index read?
Its protein stability index is 1.62.

With FCIDSENRIGNSGVFEIKGHPFFE as the variant, how does the protein stability index read?
Its protein stability index is 1.73.

Which protein stability index does the source give for FCIDSENRIGNSGVGEIKGHPFFE here?
The protein stability index was 2.08.

Which protein stability index does the source give for FCIDSENRIGNSGVHEIKGHPFFE here?
The protein stability index was 2.

For FCIDSENRIGNSGVIEIKGHPFFE, which protein stability index is on record?
Its protein stability index is 1.46.

For FCIDSENRIGNSGVKEIKGHPFFE, which protein stability index is on record?
Its protein stability index is 2.22.

With FCIDSENRIGNSGVLEIKGHPFFE as the variant, how does the protein stability index read?
The protein stability index was 1.9.

With FCIDSENRIGNSGVMEIKGHPFFE as the variant, how does the protein stability index read?
The protein stability index was 2.51.

For FCIDSENRIGNSGVNEIKGHPFFE, which protein stability index is on record?
Its protein stability index is 1.64.

Which protein stability index does the source give for FCIDSENRIGNSGVPEIKGHPFFE here?
Its protein stability index is 1.98.

With FCIDSENRIGNSGVQEIKGHPFFE as the variant, how does the protein stability index read?
The protein stability index was 1.57.

Which protein stability index does the source give for FCIDSENRIGNSGVREIKGHPFFE here?
The protein stability index was 2.08.

Which protein stability index does the source give for FCIDSENRIGNSGVSEIKGHPFFE here?
The protein stability index was 1.96.

With FCIDSENRIGNSGVTEIKGHPFFE as the variant, how does the protein stability index read?
Its protein stability index is 2.08.

For FCIDSENRIGNSGVVEIKGHPFFE, which protein stability index is on record?
Its protein stability index is 2.52.

Which protein stability index does the source give for FCIDSENRIGNSGVYEIKGHPFFE here?
Its protein stability index is 1.92.

For FCIDSENRIGNSGVEAIKGHPFFE, which protein stability index is on record?
Its protein stability index is 3.21.

Which protein stability index does the source give for FCIDSENRIGNSGVECIKGHPFFE here?
The protein stability index was 2.23.

For FCIDSENRIGNSGVEDIKGHPFFE, which protein stability index is on record?
Its protein stability index is 1.89.

With FCIDSENRIGNSGVEFIKGHPFFE as the variant, how does the protein stability index read?
Its protein stability index is 2.25.

Which protein stability index does the source give for FCIDSENRIGNSGVEGIKGHPFFE here?
Its protein stability index is 2.67.

Which protein stability index does the source give for FCIDSENRIGNSGVEHIKGHPFFE here?
The protein stability index was 2.22.

With FCIDSENRIGNSGVEIIKGHPFFE as the variant, how does the protein stability index read?
The protein stability index was 1.55.

Which protein stability index does the source give for FCIDSENRIGNSGVEKIKGHPFFE here?
Its protein stability index is 1.98.

For FCIDSENRIGNSGVELIKGHPFFE, which protein stability index is on record?
Its protein stability index is 1.79.

With FCIDSENRIGNSGVEMIKGHPFFE as the variant, how does the protein stability index read?
The protein stability index was 2.28.

With FCIDSENRIGNSGVENIKGHPFFE as the variant, how does the protein stability index read?
Its protein stability index is 2.06.

With FCIDSENRIGNSGVEPIKGHPFFE as the variant, how does the protein stability index read?
The protein stability index was 2.42.
